B1: TPR t1 (parent)
chain: GACCAAUCUGCCCUCAGAGCUCGAGAACAUCUUCGGAUGCAGAGGAGGCAGGCUUCGGUGGCGCGAUAGCGCCAACGUCCUCAACCUCCAAUGCAUCCCACCACAUGAUGAUGCCUGAAGAGCCUUGGUUUUUUG

Variants of: B1
Assay: polymerase ribozyme fitness, log enrichment relative to wild type (log ratio); higher = more active; in vitro selection for triplet polymerase activity
How it was run: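 To select mutant libraries of each subunit of a heterodimeric triplet polymerase ribozyme, built by PCR and transcribed, each was annealed with a biotinylated primer, partner subunit and triplets, then incubated frozen at −7 °C. Extended constructs were gel-excised, captured on streptavidin beads and amplified by RT-PCR, in one round carried out in triplicate. Illumina sequencing of input and output libraries kept genotypes with ≥10 input reads and ≥1 read per output. Fitness is the base-2 logarithm of genotype enrichment relative to wild-type enrichment, from inverse-variance-weighted replicate averages.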

Row | Variant | polymerase ribozyme fitness (log ratio)
1 | A5C C11A A50G C53A C99A C102G C104A C115U | -7.15
2 | C4G G135U | -2.5
3 | A5G C64U C85U | -1.64
4 | A5G G44C C82A | -2.23
5 | C4U G36U | -1.82
6 | A5C U78C C101U | -1.23
7 | A5C C82G U92G U130G | -4.87
8 | C4G G113U | -3.96
9 | C4A G120U | -1.6
10 | A5U C11G A16U G60U U87A A103C | -5.47
11 | A5C C12G C49A C56A A83C | -1.46
12 | A5C U32C A41G G60A U78A U96A | -2.78
13 | A5U A29C U78G C101U | -3.29
14 | C4U C13U G42A G69U G77A A90U C104U | -0.867
15 | C4U C8G U9C C11G C62G | -0.314
16 | A5G U32C C40U C99U A100U | -5.33
17 | A5C U87G C101U | -0.776
18 | A5G C13A C53U U59G G69C | -4.36
19 | A5C C11U A43U U59C G60A | -4.12
20 | A5G C12A U38A G60A A121C G135U | 0.199
21 | A5G G44A G45U G63U C79U C124A | -1.7
22 | C4U C72A C85U C102U A121G U133A | 0.405
23 | C4G C15A A16U C53A C72U U78C C115U | -3.84
24 | A5C A18C | -2.78

Row | Variant | polymerase ribozyme fitness (log ratio)
25 | A5G C104A G113C | -4.37
26 | C4U C86U C101G | -1.82
27 | A5U C12U G71U C114A G128A | -4.71
28 | A5C G71U | -0.21
29 | A5C C70G | -2.95
30 | A5C G71A U132A | -1.18
31 | A5G G10A C15A G23C U32G C64A G128C U130C | -6.17
32 | A5C C82A U126G | -0.956
33 | A5C C12G C49A A83C | -0.122
34 | A5G A91C | -1.57
35 | C4A G48U G120U | -3.84
36 | C4U C56A C101A G117C | -5.92
37 | A5C U7G U54A G110C | -4.81
38 | A5C A43G C53U G63C G113C | -3.6
39 | C4U A37U U38A A46G A50G | -2.72
40 | C4U C11U A18G C34U C73G C124G | -5.4
41 | A5G G135U | -1.22
42 | A5G G117C | -3.71
43 | A5G C62U C88G U112C C123A C124A U130A | 0.112
44 | A5C C40A C64U C89U C102U U106A | -7.21
45 | A5G A18U C28U | -4.63
46 | C4G U9A U112G G117U | -2.18
47 | C4G C11G G39A | -1.72
48 | A5U G10A G17C | -4.03

Row | Variant | polymerase ribozyme fitness (log ratio)
49 | C4G U9G A41G | -1.21
50 | A5G C20U U38G G110U | -4.64
51 | C4U U81A | -1.77
52 | C4G A50U G61U | -2.2
53 | A5G C40A C72U G110U | -3.65
54 | A5U C40G G71U U87G | -3.8
55 | A5C C13U G60U | -0.844
56 | A5U C11A G42C G63A C88U U106A A121C U125A | -5.18
57 | A5C C22G C56G C123U | -4.43
58 | C4U A16G C49U G69U G113U | -2.65
59 | A5U C114A G122U | -1.76
60 | A5U C88G G117A G120C | -4.11
61 | A5C G10A C86A | -0.155
62 | C4U C53G G57U G110A | -1.58
63 | A5G C104U G117C U130G | -3.77
64 | C4G G71U | -1.92
65 | A5G C13U C98U G128U | -3.14
66 | A5G A41G A50U C72U A75U G93A U112A G113C | -3.59
67 | C4U C11A G51C | -4.83
68 | A5G G45A | -0.52
69 | C4U A18U U55G C86U | -2.79
70 | A5U C72G G117A | -1.96
71 | A5C G52U | -2.8
72 | A5C G52A | -0.884

Row | Variant | polymerase ribozyme fitness (log ratio)
73 | C4U G52A C62U C82G G120C | -0.476
74 | C4G C80U C89G | -4.61
75 | A5G C40A G120U | -0.337
76 | C4U A27G | -2.96
77 | A5C C123G | 1.35
78 | A5U C15U A16U U125A | -4.8
79 | C4G C8A C20G A111C C123G | -4.96
80 | C4G A111G | -1.57
81 | C4G C80U | -1.83
82 | A5G A41C | -0.911
83 | C4U C49U A66G G69C U78A | -5.15
84 | C4U A18C A29G C56A | -4.17
85 | C4U C64A A68C C79A G120U | -6.51
86 | C4A G61C | -3.08
87 | A5C C56G C98A A121C | -3.33
88 | C4U A68U A100U G117U | -5.92
89 | C4U C62U C124G | 1.31
90 | C4U A43G G47U C53U G61U | -3.38
91 | A5G U9G A111U U126A | -3.21
92 | A5U A83C | -0.98
93 | C4U C76G C114U U129A | -4.95
94 | C4U G48U G52U A90U C124G | -1.92
95 | A5G C11A C70G U81C | -4.45
96 | C4U U130A | -1.49

Row | Variant | polymerase ribozyme fitness (log ratio)
97 | A5C A74G C85A C104U | -0.8
98 | C4A G51U C70A A84C G113U C114U G128A | -6.15
99 | C4U G44U C76A G77U A91C G120A | -2.7
100 | C4A U9A A43U C56A A83C U126A | -4.76
101 | A5G G48U C73A C97A | -5.81
102 | C4U U7C A43U C70U C85A U92G G120C | -5.06
103 | A5C A16G C20U A43G A121G | -0.652
104 | C4G C13U U33G G39U G44A C82U U112A | -4.58
105 | A5C C56A C80A | -3.29
106 | C4G C12U C97A U112C | -2.59
107 | A5U A16C | -2.72
108 | C4U C70G | -2.23
109 | C4G A18C A46G A83U G128A | -5.74
110 | A5C C11G G36U G44A C56A U112A | -1.22
111 | C4U C11A G61U C98U G113A U126G | -5.59
112 | A5C C53G U96A C123U | -0.893
113 | A5G A43C G44C G52C C73U U109A C114U C115A | -6.36
114 | A5C C12G C114G | -5.39
115 | A5U C70A C97U U125A | -2.48
116 | C4A G110U | -3.24
117 | C4U U7G C11G C13A C56U U87A U112A | 1.5
118 | C4G A16C C82U G120C C124A | -3.01
119 | C4G G44A A46U U59C | -3.73
120 | C4G C8G C11A U14G C124U | -0.919

Row | Variant | polymerase ribozyme fitness (log ratio)
121 | A5G C82U C97U C124G U126A | -0.153
122 | C4A G63A | -1.65
123 | C4G A50C C115U | -4.34
124 | C4G C56A U59G C104U A111U C123U | -4.15
125 | A5C C104U | -1.05
126 | A5G A46U C56U C73G G122A C123A | -3
127 | A5G A26U | -2.44
128 | A5C C124A U126A U131A | 0.939
129 | A5U C11A G58U C70U C101U | -2.57
130 | C4G U54A G60C | -1.88
131 | A5G C15U C49U C62A C123A | -2.06
132 | A5C C11U C40U G48U G60U U87A A111C | -4.98
133 | C4U C85U | -1.63
134 | C4G C40U A66C C86G C97A C115G | -6.24
135 | C4G C22G G42A C53G | -4.26
136 | A5C C88G G127A | -2.6
137 | C4U C8G G47C C123A | -0.0311
138 | A5U C49A A95G | -0.603
139 | C4U A41G | -0.698
140 | A5U A95U | -1.24
141 | C4U C53U U125A | -1.45
142 | C4G C123G G128C | -0.896
143 | A5G G19A C72U U87A G117U | -4.71
144 | C4G G61U | -1

Row | Variant | polymerase ribozyme fitness (log ratio)
145 | A5G C13A G48C C73A U112A G120C | -0.914
146 | A5C C89G C114G U126C U131A | -5.03
147 | A5G C62A G117C | -4.86
148 | A5U A43U G63A | -3.99
149 | A5U C88G G120C | 0.286
150 | A5U C8G C20U C40A | -3.31
151 | A5G C8U C34A C62U G117A | -5.35
152 | C4G G45A | -2.31
153 | C4G G36A A43C G45U C124G | -4.47
154 | C4U C62G U112A | -1.6
155 | C4G G10C C115U | -3.25
156 | C4U C70A C85G C86U | -3.72
157 | A5C G63C C94A G113C G122U | -4.6
158 | C4U A90G | -0.325
159 | C4G A37U | -1.82
160 | A5C C56G | -1.73
161 | A5U C86G | -1.26
162 | A5U C64G C88G C104A A121G | -7.55
163 | A5G C12U G35A G71A U78A C85G C124A | -5.49
164 | A5G A27G G45C C97U G120A | -2.95
165 | A5G A6C A43G C72U | -2.46
166 | A5U C72G | -0.174
167 | C4A G93A G120C U126G | -1.92
